Where a chain is given by its changes, count along the chain named.
B1: Bacillus multidrug resistance ATP (BmrA) wt, full-length half-transporter (natural protein, Bacillus subtilis strain 168, UniProt O06967 1-589, looked up)
chain: MPTKKQKSKSKLKPFFALVRRTNPSYGKLAFALALSVVTTLVSLLIPLLTKQLVDGFSMSNLSGTQIGLIALVFFVQAGLSAYATYALNYNGQKIISGLRELLWKKLIKLPVSYFDTNASGETVSRVTNDTMVVKELITTHISGFITGIISVIGSLTILFIMNWKLTLLVLVVVPLAALILVPIGRKMFSISRETQDETARFTGLLNQILPEIRLVKASNAEDVEYGRGKMGISSLFKLGVREAKVQSLVGPLISLVLMAALVAVIGYGGMQVSSGELTAGALVAFILYLFQIIMPMGQITTFFTQLQKSIGATERMIEILAEEEEDTVTGKQIENAHLPIQLDRVSFGYKPDQLILKEVSAVIEAGKVTAIVGPSGGGKTTLFKLLERFYSPTAGTIRLGDEPVDTYSLESWREHIGYVSQESPLMSGTIRENICYGLERDVTDAEIEKAAEMAYALNFIKELPNQFDTEVGERGIMLSGGQRQRIAIARALLRNPSILMLDEATSSLDSQSEKSVQQALEVLMEGRTTIVIAHRLSTVVDADQLLFVEKGEITGRGTHHELMASHGLYRDFAEQQLKMNADLENKAG
notes: BmrA, ABC half-transporter of Bacillus subtilis strain 168, full length (last residue G589); Cloned into pET303-CT/His; source: E. coli, purified in presence of detergent (DDM)
B2: BmrA K579C (natural protein, Bacillus subtilis strain 168, UniProt O06967 1-589, looked up)
chain: B1 chain with K579C
notes: BmrA of Bacillus subtilis strain 168, full length, K579 replaced by Cys; Forms a disulfide-linked dimer without DTT; source: E. coli, purified in presence of detergent (DDM)
B3: BmrA M580C (natural protein, Bacillus subtilis strain 168, UniProt O06967 1-589, looked up)
chain: B1 chain with M580C
notes: BmrA of Bacillus subtilis strain 168, full length, M580 replaced by Cys; Forms a disulfide-linked dimer without DTT; source: E. coli, purified in presence of detergent (DDM)
B4: BmrA N581C (natural protein, Bacillus subtilis strain 168, UniProt O06967 1-589, looked up)
chain: B1 chain with N581C
notes: BmrA of Bacillus subtilis strain 168, full length, N581 replaced by Cys; Forms a disulfide-linked dimer without DTT; source: E. coli, purified in presence of detergent (DDM)
B5: BmrA D583C (natural protein, Bacillus subtilis strain 168, UniProt O06967 1-589, looked up)
chain: B1 chain with D583C
notes: BmrA of Bacillus subtilis strain 168, full length, D583 replaced by Cys; Forms a disulfide-linked dimer without DTT; source: E. coli, purified in presence of detergent (DDM)
B6: BmrA A582C (natural protein, Bacillus subtilis strain 168, UniProt O06967 1-589, looked up)
chain: B1 chain with A582C
notes: BmrA of Bacillus subtilis strain 168, full length, A582 replaced by Cys; Forms a disulfide-linked dimer without DTT; source: E. coli, purified in presence of detergent (DDM)
B7: BmrA L578A (natural protein, Bacillus subtilis strain 168, UniProt O06967 1-589, looked up)
chain: B1 chain with L578A
notes: BmrA of Bacillus subtilis strain 168, full length, L578 replaced by Ala; source: E. coli, purified in presence of detergent (DDM)
B8: BmrA R571A (natural protein, Bacillus subtilis strain 168, UniProt O06967 1-589, looked up)
chain: B1 chain with R571A
notes: BmrA of Bacillus subtilis strain 168, full length, R571 replaced by Ala; source: E. coli, purified in presence of detergent (DDM)
B9: BmrA Q576A (natural protein, Bacillus subtilis strain 168, UniProt O06967 1-589, looked up)
chain: B1 chain with Q576A
notes: BmrA of Bacillus subtilis strain 168, full length, Q576 replaced by Ala; source: E. coli, purified in presence of detergent (DDM)
B10: BmrA E575A (natural protein, Bacillus subtilis strain 168, UniProt O06967 1-589, looked up)
chain: B1 chain with E575A
notes: BmrA of Bacillus subtilis strain 168, full length, E575 replaced by Ala; source: E. coli, purified in presence of detergent (DDM)
B11: BmrA L569A (natural protein, Bacillus subtilis strain 168, UniProt O06967 1-589, looked up)
chain: B1 chain with L569A
notes: BmrA of Bacillus subtilis strain 168, full length, L569 replaced by Ala; source: E. coli, purified in presence of detergent (DDM)
B12: BmrA F573A (natural protein, Bacillus subtilis strain 168, UniProt O06967 1-589, looked up)
chain: B1 chain with F573A
notes: BmrA of Bacillus subtilis strain 168, full length, F573 replaced by Ala; source: E. coli, purified in presence of detergent (DDM)
B13: BmrA A574V (natural protein, Bacillus subtilis strain 168, UniProt O06967 1-589, looked up)
chain: B1 chain with A574V
notes: BmrA of Bacillus subtilis strain 168, full length, A574 replaced by Val; source: E. coli, purified in presence of detergent (DDM)
B14: BmrA D572A (natural protein, Bacillus subtilis strain 168, UniProt O06967 1-589, looked up)
chain: B1 chain with D572A
notes: BmrA of Bacillus subtilis strain 168, full length, D572 replaced by Ala; source: E. coli, purified in presence of detergent (DDM)
B15: BmrA Q577A (natural protein, Bacillus subtilis strain 168, UniProt O06967 1-589, looked up)
chain: B1 chain with Q577A
notes: BmrA of Bacillus subtilis strain 168, full length, Q577 replaced by Ala; source: E. coli, purified in presence of detergent (DDM)

Target: the molecule itself
Assay: cross-linking + native gel or EMSA; blue native PAGE of purified BmrA wt and Cys variants; 0.25 mg/ml preincubated ± 100 uM DTT for 30 min at room temperature, then DDM to 1%; no ATP; 4 to 16% Bis-Tris gel; dimer to monomers
For B1, the “stoichiometry N” value was 2. B2 was tested, and the “stoichiometry N” value was 2. In the case of B3, the “stoichiometry N” value is reported as 2. For B4, the “stoichiometry N” value was 2. In the case of B5, the “stoichiometry N” value is reported as 2. In the case of B6, the “stoichiometry N” value is reported as 2.

Target: the molecule itself
Assay: native gel or EMSA; blue native PAGE of purified BmrA wt and Ala (Val) variants in DDM micelles; 4 to 16% Bis-Tris gel; dimer to monomers
B7: binds. B8: binds. B9: binds. B10: binds. B11: binds. B12: binds. B13: binds. B14: binds. B15: binds.

— article PMC11774805, “The C-terminal α-helix is crucial for the activity of the bacterial ABC transporter BmrA” (The Journal of Biological Chemistry, 2024)
